The nature of the series: label from the status in PepcDB records.
On to “MKLNATYIKIRDKWWGLPLFLPSLILPIFAHINTFAHISSGEVFLFYLPLALMISMMMFFSWAALPGIALGIFVRKYAELGFYETLSLTANFIIIIILCWGGYRVFTPRRNNVSHGDTRLISQRIFWQIVFPATLFLILFQFAAFVGLLASRENLVGVMPFNLGTLINYQALLVGNLIGVPLCYFIIRVVRNPFYLRSYYSQLKQQVDAKVTKKEFALWLLALGALLLLLCMPLNEKSTIFSTNYTLSLLLPLMMWGAMRYGYKLISLLWAVVLMISIHSYQNYIPIYPGYTTQLTITSSSYLVFSFIVNYMAVLATRQRAVVRRIQRLAYVDPVVHLPNVRALNRALRDAPWSALCYLRIPGMEMLVKNYGIMLRIQYKQKLSHWLSPLLEPGEDVYQLSGNDLALRLNTESHQERITALDSHLKQFRFFWDGMPMQPQIGVSYCYVRSPVNHIYLLLGELNTVAELSIVTNAPENMQRRGAMYLQRELKDKVAMMNRLQQALEHNHFFLMAQPITGMRGDVYHEILLRMKGENDELISPDSFLPVAHEFGLSSSIDMWVIEHTLQFMAENRAKMPAHRFAINLSPTSVCQARFPVEVSQLLAKYQIEAWQLIFEVTESNALTNVKQAQITLQHLQELGCQIAIDDFGTGYASYARLKNVNADLLKIDGSFIRNIVSNSLDYQIVASICHLARMKKMLVVAEYVENEEIREAVLSLGIDYMQGYLIGKPQPLIDTLNEIEPIRESA”, for which the protein production result is reported as “failed”.
Then “MSNYEKVYIGTYTNGESRGIYSFNIISDSRKTTAPILSCEIENPTYLTFNMNNKTAYSVIKSGNLGGAASFYVDDRNNHLELLNCKFGYENPPERFSGKQPCYVSLDKTNSYLFSVNYHTSRVDVFPIRNDGSIDTVSSFVIHEGFGPNKERQETSHVHCAVTTPLNDFLCVVDLGTDKIVLYRFDDGILCRFNEFKLKPGCGPRHIIFHPNGKIAYIATELSSEVIVLKYSPLDGSFEELQYVSCLPTDYTGKNGSAAIHISRNSNYLYVSNRGHNSISCFHVDNSTGLLTLNSNTSTYGLSPRDFDLSSSGNLLIAANQDSSNLTIFSVDQVSGNLSKITSDIYVPNPVCVKFYHDKLEHHHHHH”, with “failed”.
Turning to “MWAFLVEQPNLPYTIAFACVLVLGVFEALALLIGLSMMSALDQWVPADVEYDADIGGSGLTGIAGWLCLNRLPLLIWFVLALTSFAIAGYLVNYISLMVSATLLPQLFTLPIAVVGSALSCRYLGRMLADLLPKNESTAISLDDLSGYVGTITLGCAIKGMPSEAVVRDKHQQKHYVLVEPETSGIEFASGTQVVLLKREGRVWSATRFDN”, the protein production entry is listed as “failed”.
For “MSENNSNREPQKDVGKGNNSLMRWVGRLVLFAIILAITSFLTPGFSIRGFWTFVLASVVITGLDYLVESFMKVDASPFGKGLKGFIISAVIIYLAQFLVPNMRVSIIGAILASLVIGVIDAIIPSRSM” the value was “failed”; for “MAHIFVYGTLKRGQPNHKVMLDHSHGLAAFRGRGCTVESFPLVIAGEHNIPWLLYLPGKGHCVTGEIYEVDEQMLRFLDDFEDCPSMYQRTALQVQVLEWEGDGDPGDSVQCFVYTTATYAPEWLFLPYHESYDSEGPHGLRYNPRENR”, “not failed”; for “MASNMDREMILADFQACTGIENIDEAITLLEQNNWDLVAAINGVIPQENGILQSEYGGETIPGPAFN”, “failed”.
In the case of “MKALRAFAIVAASLLLATGAAAQVSLSPPSGPNPFPKPLEPEKPKPRPPAPAKAPATEAKDKAKKPGDKPDAKAAPEGGAATAEDPNVDLVYGAYQRGFYKTAFELAQKRAADNDAKAMTMLGELYANALGVKRDYKKAAEWYSRAADLGDREAMFALAMARMGGRGGPPNREEAAKWLAQAAKLGEPKAAYNLALLYLDGQTFPQDVKRAAELLRMAADAGNPEAQYALATFYKEGTGVTKSIEQSVRLLQAAALAGNVPAQVEYAIALYNGTGTPKNEPAAVALLRKAARANNPIAQNRLAHVLVSGQGAPRDINEAMKWHLIAKTAGKGDLQLDQTLAQMSAEDRAKAEEAARTWIGGGK”, the protein production entry was “failed”.
On to “MKIKPPLPTVTRTHARALRKELTDAERALWRCLRSNQLHDFKFRRQHPIPPYIADFCCIDAALIIELDGSQHQASSDQARTRWLQSKGWTVLRFWNNDVLFSLDAVVETIFKMVATPYPHPNPSPGGRGA”, for which the protein production entry is listed as “failed”.
Take “MGTVSKALTLLTYFNHGRLEIGLSDLTRLSGMNKATVYRLMSELQEAGFVEQVEGARSYRLGPQVLRLAALREASVPILSASRRVLRELSEDTGETTHLSLLQGEQLASLSHAYSSRNATKVMMEDAEVLTFHGTASGLAVLAYSEPSFVDAVLAAPLTARTPQTQTDPAAIRAEIAEVRRTGLAQSIGGFEAEVHSHAVPIFGPDRAVLGALAVAAPTSRMTPDQKRTIPPALRAAGLSLTERIGGACPPEFPTDIAA”: the protein production entry is listed as “not failed”.
“PVNQVQSSVSWPQNGSLNSVSAPLMSYTPISFDAKIPVASVDKLRKDQDLILGTLPANSEDAGARGLFVRANDDGLQITSHGELVLDLSKRELAQLPADATIAISATEDETTAGIEGDDSTTETVERDVRPIIMGIYTELESNAAADLLNAGLNAHVEINSRFTSSPTLAKYAS”: the protein production result was “not failed”.
For “MGYQLSATLKGHDQDVRDVVAVDDSKVASVSRDGTVRLWSKDDQWLGTVVYTGQGFLNSVCYDSEKELLLFGGKDTMINGVPLFATSGEDPLYTLIGHQGNVCSLSFQDGVVISGSWDKTAKVWKEGSLVYNLQAHNASVWDAKVVSFSENKFLTASADKTIKLWQNDKVIKTFSGIHNDVVRHLAVVDDGHFISCSNDGLIKLVDMHTGDVLRTYEGHESFVYCIKLLPNGDIVSCGEDRTVRIWSKENGSLKQVITLPAISIWSVDCMSNGDIIVGSSDNLVRIFSQEKSRWASEDEINELSTQVEKSTISSKTIEFDESKLSPYEILQSPGRKEGQIVVVKSPQGTIEAHQFSNSSWKKVGDVVGAGATGNDKKIEFEGKTYDYVFDVDIEDGKPPLKLPINVSDNPYTAADNFLARYELPMSYRDQVVQFILKNTNGISLDQPNDNASSSAVSPSKTSVMKVLPVKQYLIMENYNPDTIFNGIVKINSNEKTFDDEILAQIGGALHDIDESWELLLSFANTIRSNWEIKTPAYDIVRLIVKKLPYSSDIKDYIEEGLGNKNITLTMLTVRILVNCFNNENWGVKLLESNQVYKSIFETIDTEFSQASAKQSQNLAIAVSTLIFNYSALVTKGNSDLELLPIVADAINTKYGPLEEYQECEEAAYRLTVAYGNLATVEPTLRQFANSVTWLANIKRSYGNVPRFKDIFDDLS”, the protein production entry was “failed”.
In the case of “MTGCFLWQLYLPKLQTGSLKPEVPPAPVKMCPRHPELVPLAHPLPVLKEALEKVDGILRKAMLAPGLAAMSALVIHNDTVLWTGNFGRKNGSDPNSGTPNEYTMYRIASISKIFPVLMLYRLWEEGIVDSLDDPLERYASTFSINNPLGTAQGPGAQGPTGESEEMGSLPRPSPVTLRRMASQLSGLPRRLRGTSLLWRGSTQEALSLLKDDVLVADPGTRCHYSTLAFSLLAHVLAAHRAQGDYERWVSEQVLEPLGMSDTGFALTGTVRARLAAGFYGSGRSAPLYDLGWYRPSGQMYSTAADLARLAAALLGAGPRRLLRPDSLATLLAPLRACAHGYFASETGTPWEFHERRGYRVARKDGDLDGYAASLALVPPLRLGFVLLLAGPRPPTRDLVADALDTLLPALERALREAELAPAPPPRARPFAGFFTFANRTFYEVRAAGPRGELRLRQFGPRVEALVPAAFRSLALRHVRGRVFQLHVAREFPCALPLADAWLSLESQHGQLVRFYPLDRHGLAPGFDSCDSMDGWNTTCSAVHFLEDVWVVYNLQFL”, the protein production entry is “failed”.
Then “MGYCIIIPAYNAARTLPAVVREVLGLGMPCLVVDDGSTDGTSATVEGLGVHLLRHDGNRGKGAALRTGFEWALAHGYSGVVTLDADGQHDPTAIPLLAATARERNVDILIASRDTQFREMAGLRSVWNRFGVWCMRKRTGFTITDSQSGFRWYSARLLKGVSLEASGYHLEMEILMKAWRGGFAIDSLPVAARVADGRATSHFRPVRDTWNICMTFLRHMLEHHHHHH”, with “not failed”; and “MNIFEQTPPNRRRYGLAAFIGLIAGVVSAFVKWGAEVPLPPRSPVDMFNAACGPESLIRAAGQIDCSRNFLNPPYIFLRDWLGLTDPNAAVYTFAGHVFNWVGVTHIIFSIVFAVGYCVVAEVFPKIKLWQGLLAGALAQLFVHMISFPLMGLTPPLFDLPWYENVSEIFGHLVWFWSIEIIRRDLRNRITHEPDPEIPLGSNR”, with “failed”; and “MEIASQEDHDMPIPLNTTFGGGGSHGHMIHHHDHHAANSAPPTHNNNNTTQPPPMPLHGNGHGNNYDHHHHQDPHHVGYNAIIKKPMIKYKECLKNHAAAMGGNATDGCGEFMPSGEDGSIEALTCSACNCHRNFHRKEVEGELAATAMSPYHQHPPHRKLMLNHQKIRSAMPHQMIMPIGVSNYRYMHNNSESEDFMEEDGVTTASRSLPNLPYNQKKRFRTKFTPEQKEKMLSFAEKVGWKIQRQEDCVVQRFCEEIGVKRRVLKVWMHNNKIHFSKKNNINLEDNDNEKINNLNNVDLSGNNDMTKIVP”, with “failed”.
Then “MQTIIRVEKLAKTFNQHQALHAVDLNIHHGEMVALLGPSGSGKSTLLRHLSGLITGDKSVGSHIELLGRTVQREGRLARDIRKSRAHTGYIFQQFNLVNRLSVLENVLIGALGSTPFWRTCFSWFTGEQKQRALQALTRVGMVHFAHQRVSTLSGGQQQRVAIARALMQQAKVILADEPIASLDPESARIVMDTLRDINQNDGITVVVTLHQVDYALRYCERIVALRQGHVFYDGSSQQFDNERFDHLYRSINRVEENAKAA”, with “failed”.
Then “QSGMKAELLDHGTAPVPSELAEYFPQVPEVALYHRLRCDEKTGEPTNHARNYVRPELAGRIDLDDLARWPMTKVLRDVVGMDISRITDTVEARLADPETARLLEVPLLSPILHYTGITYDLEGRVLDVAVIHYRGDRFSFTVTLDAT”, with “failed”; and “MEIHFEKVTSDNRKAVENLQVFAEQQAFIESMAENLKESDQFPEWESAGIYDGNQLIGYAMYGRWQDGRVWLDRFLIDQRFQGQGYGKAACRLLMLKLIEKYQTNKLYLSVYDTNSSAIRLYQQLGFVFNGELDTNGERVMEWTHQNK”, with “not failed”.
Regarding “MVNQQEEINLSVALVTRNRPDSLERCLKSLRDQKVQPFEVVVSDDSDDLYKSSTKEIAQKWGCRYIDGPKRGLYANRNYVALACYGTHIRTMDDDHEFPEQHIEVCLNAIQSDPSSIWIIGEYSPTSSIENAPHPCPGQLHPRGFSFYPKDTQNCWAIADGASIYPKKIFASGLRFVEYYKFGASYLEWGSRLYYLSYRIRHLDSTYIIHHFNPKARSFSDQEMDQSSRFFAMLCHSFLYQSTFKNKCLFSYEILKQFILDPKLTIKCIINSWSNFELFSRSFCALEHHHHHH”, the protein production result is reported as “failed”.
For “MKHPLQDMFTSAIEAVARDSGWAELSAVGSYLAKNDPSFDPRNWGHGRLSQMVKKLDFLTVQESRNGSKLHSEIRLRHDGLEHHHHHH” the value was “not failed”.
Then “MLEDHHLYKAAIEHSPIGIGLCAPKGRFLDVNRALCALTGHEAQALRARDLFDLCHPDYAARTRERVEALLAGEQDALSLETRFVRPDGSTVWVQADLALARAEAGDGQDGHLIVQVQDVTARRLALESLQASEQRLAYVLDGAGLGTFDWSMRVRHVSFNRRTAEMLGYAHDELSTDPQDWFAMVHPQDAVLSVRRIYRHLRGDADSFEVEQRLRNQEGQWVWMSARGRVTQRDALGIAVRVSGTLQDVTRRRAMLDQAHHLALHDPLTDLPNARLLRDRLFVAIQAARRAGSLVAVVFVDLDRFKPVNDEYGHGVGDLVLKATAMRLRSGLRASDTVARLGGDEFVAVLTHCQTRDDVEQTVERLIEQLQAPFRVEGHVLSMGVSAGVALYPSDGRDAQTLIRCADAAMYEVKRAGGNDFGFHASLNYERLMSMRQRGPDPDGGADGR”, with “failed”.
